*1 amine or outer side, *2 acyl side, *3 side chain or, on linkers, in order; H or OH if unused. Where no end group is shown, it is not given here. Side-chain parts run from the residue outwards. [ ]: non-standard residue; d: D form. The star is where a group is joined. γGlu = O=C(O)[C@H](CCC(=O)[*:2])N[*:1]; Palmitoyl = CCCCCCCCCCCCCCCC(=O)*; Aib = CC(C)(N)C(=O)O
T1: GIP receptor (UniProt P48546 22-466, limits assumed)
T1 sequence (looked up): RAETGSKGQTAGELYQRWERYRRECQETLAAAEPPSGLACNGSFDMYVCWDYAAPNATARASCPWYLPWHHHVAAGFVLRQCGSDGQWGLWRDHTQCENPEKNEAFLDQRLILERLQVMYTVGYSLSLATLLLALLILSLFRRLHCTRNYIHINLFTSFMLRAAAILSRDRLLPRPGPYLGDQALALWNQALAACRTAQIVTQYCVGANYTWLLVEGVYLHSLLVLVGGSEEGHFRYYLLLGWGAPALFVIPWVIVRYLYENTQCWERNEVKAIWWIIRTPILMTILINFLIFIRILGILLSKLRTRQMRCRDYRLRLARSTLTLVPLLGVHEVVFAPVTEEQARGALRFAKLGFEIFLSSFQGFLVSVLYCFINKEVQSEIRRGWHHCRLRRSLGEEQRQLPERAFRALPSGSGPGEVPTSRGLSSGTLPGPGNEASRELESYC

B1: peptide of SEQ ID NO: 144 (peptide)
peptide: YXEGTFTSDXSIYLDKQAAXEFVNWLLAGGPSSGAPPPS
modifications: aib at 2 and 20; 4-aminoPhe at 10, F(4amino-succinoylC16); NH2
B2: peptide of SEQ ID NO: 203 (peptide)
peptide: H[Aib]QGTFTSDYSKYLDERAAQDFVQWLLAGGPSSGAPPPSK([γGlu-γGlu-Palmitoyl])G-NH2
B3: peptide of SEQ ID NO: 205 (peptide)
peptide: H[Aib]QGTFTSDK([γGlu-Palmitoyl])SKYLDERAAQDFVQWLLDGGPSSGAPPPSG-NH2
modifications: N-terminus assumed
SMILES: CCCCCCCCCCCCCCCC(=O)N[C@@H](CCC(=O)NCCCC[C@H](NC(=O)[C@H](CC(=O)O)NC(=O)[C@H](CO)NC(=O)[C@@H](NC(=O)[C@H](Cc1ccccc1)NC(=O)[C@@H](NC(=O)CNC(=O)[C@H](CCC(N)=O)NC(=O)C(C)(C)NC(=O)[C@@H](N)Cc1c[nH]cn1)[C@@H](C)O)[C@@H](C)O)C(=O)N[C@@H](CO)C(=O)N[C@@H](CCCCN)C(=O)N[C@@H](Cc1ccc(O)cc1)C(=O)N[C@@H](CC(C)C)C(=O)N[C@@H](CC(=O)O)C(=O)N[C@@H](CCC(=O)O)C(=O)N[C@@H](CCCNC(=N)N)C(=O)N[C@@H](C)C(=O)N[C@@H](C)C(=O)N[C@@H](CCC(N)=O)C(=O)N[C@@H](CC(=O)O)C(=O)N[C@@H](Cc1ccccc1)C(=O)N[C@H](C(=O)N[C@@H](CCC(N)=O)C(=O)N[C@@H](Cc1c[nH]c2ccccc12)C(=O)N[C@@H](CC(C)C)C(=O)N[C@@H](CC(C)C)C(=O)N[C@@H](CC(=O)O)C(=O)NCC(=O)NCC(=O)N1CCC[C@H]1C(=O)N[C@@H](CO)C(=O)N[C@@H](CO)C(=O)NCC(=O)N[C@@H](C)C(=O)N1CCC[C@H]1C(=O)N1CCC[C@H]1C(=O)N1CCC[C@H]1C(=O)N[C@@H](CO)C(=O)NCC(N)=O)C(C)C)C(=O)O
B4: peptide of SEQ ID NO: 204 (peptide)
peptide: H[Aib]QGTFTSDYSKYLDERAAQDFVQWLLDAGPSSGAPPPSK([γGlu-γGlu-Palmitoyl])G-NH2
B5: peptide of SEQ ID NO: 207 (peptide)
peptide: H[Aib]QGTFTSDK([γGlu-γGlu-Palmitoyl])SKYLDERAAQDFVQWLLDGGPSSGAPPPSG-NH2
modifications: N-terminus assumed
SMILES: CCCCCCCCCCCCCCCC(=O)N[C@@H](CCC(=O)N[C@@H](CCC(=O)NCCCC[C@H](NC(=O)[C@H](CC(=O)O)NC(=O)[C@H](CO)NC(=O)[C@@H](NC(=O)[C@H](Cc1ccccc1)NC(=O)[C@@H](NC(=O)CNC(=O)[C@H](CCC(N)=O)NC(=O)C(C)(C)NC(=O)[C@@H](N)Cc1c[nH]cn1)[C@@H](C)O)[C@@H](C)O)C(=O)N[C@@H](CO)C(=O)N[C@@H](CCCCN)C(=O)N[C@@H](Cc1ccc(O)cc1)C(=O)N[C@@H](CC(C)C)C(=O)N[C@@H](CC(=O)O)C(=O)N[C@@H](CCC(=O)O)C(=O)N[C@@H](CCCNC(=N)N)C(=O)N[C@@H](C)C(=O)N[C@@H](C)C(=O)N[C@@H](CCC(N)=O)C(=O)N[C@@H](CC(=O)O)C(=O)N[C@@H](Cc1ccccc1)C(=O)N[C@H](C(=O)N[C@@H](CCC(N)=O)C(=O)N[C@@H](Cc1c[nH]c2ccccc12)C(=O)N[C@@H](CC(C)C)C(=O)N[C@@H](CC(C)C)C(=O)N[C@@H](CC(=O)O)C(=O)NCC(=O)NCC(=O)N1CCC[C@H]1C(=O)N[C@@H](CO)C(=O)N[C@@H](CO)C(=O)NCC(=O)N[C@@H](C)C(=O)N1CCC[C@H]1C(=O)N1CCC[C@H]1C(=O)N1CCC[C@H]1C(=O)N[C@@H](CO)C(=O)NCC(N)=O)C(C)C)C(=O)O)C(=O)O
B6: dual acylated peptide of SEQ ID NO: 160 (peptide)
peptide: HXQGTFTSDKSKYLDERAAQDFVQWLLDGGPSSGAPPPS
modifications: aib at 2; Lys10 carrying two acylations in a branched formation, K*K(rEC16)2; amide
B7: dual acylated peptide of SEQ ID NO: 162 (peptide)
peptide: B6 peptide
modifications: aib at 2; Lys10 carrying two acylations in a linear formation, K*(C12-rEC16); amide
B8: dual acylated peptide of SEQ ID NO: 163 (peptide)
peptide: H[Aib]QGTFTSDK([γGlu-Palmitoyl])SKYLDERAAQDFVQWLLDGGPSSGAPPPSK([γGlu-Palmitoyl])-NH2
modifications: N-terminus assumed
SMILES: CCCCCCCCCCCCCCCC(=O)N[C@@H](CCC(=O)NCCCC[C@H](NC(=O)[C@H](CO)NC(=O)[C@@H]1CCCN1C(=O)[C@@H]1CCCN1C(=O)[C@@H]1CCCN1C(=O)[C@H](C)NC(=O)CNC(=O)[C@H](CO)NC(=O)[C@H](CO)NC(=O)[C@@H]1CCCN1C(=O)CNC(=O)CNC(=O)[C@H](CC(=O)O)NC(=O)[C@H](CC(C)C)NC(=O)[C@H](CC(C)C)NC(=O)[C@H](Cc1c[nH]c2ccccc12)NC(=O)[C@H](CCC(N)=O)NC(=O)[C@@H](NC(=O)[C@H](Cc1ccccc1)NC(=O)[C@H](CC(=O)O)NC(=O)[C@H](CCC(N)=O)NC(=O)[C@H](C)NC(=O)[C@H](C)NC(=O)[C@H](CCCNC(=N)N)NC(=O)[C@H](CCC(=O)O)NC(=O)[C@H](CC(=O)O)NC(=O)[C@H](CC(C)C)NC(=O)[C@H](Cc1ccc(O)cc1)NC(=O)[C@H](CCCCN)NC(=O)[C@H](CO)NC(=O)[C@H](CCCCNC(=O)CC[C@H](NC(=O)CCCCCCCCCCCCCCC)C(=O)O)NC(=O)[C@H](CC(=O)O)NC(=O)[C@H](CO)NC(=O)[C@@H](NC(=O)[C@H](Cc1ccccc1)NC(=O)[C@@H](NC(=O)CNC(=O)[C@H](CCC(N)=O)NC(=O)C(C)(C)NC(=O)[C@@H](N)Cc1c[nH]cn1)[C@@H](C)O)[C@@H](C)O)C(C)C)C(N)=O)C(=O)O
B9: dual acylated peptide of SEQ ID NO: 161 (peptide)
peptide: H[Aib]QGTFTSDYSKYLDERAAQDFVQWLLDGGPSSGAPPPSK-NH2
modifications: also: Lys40 branched dual acylation K*K(γE-C16)2

What follows are binders tested against T2, GLP-1 receptor (UniProt P43220 24-463, limits assumed) (assay: cell-based or functional assay).
Target sequence in this assay (P43220 24-463 limits assumed): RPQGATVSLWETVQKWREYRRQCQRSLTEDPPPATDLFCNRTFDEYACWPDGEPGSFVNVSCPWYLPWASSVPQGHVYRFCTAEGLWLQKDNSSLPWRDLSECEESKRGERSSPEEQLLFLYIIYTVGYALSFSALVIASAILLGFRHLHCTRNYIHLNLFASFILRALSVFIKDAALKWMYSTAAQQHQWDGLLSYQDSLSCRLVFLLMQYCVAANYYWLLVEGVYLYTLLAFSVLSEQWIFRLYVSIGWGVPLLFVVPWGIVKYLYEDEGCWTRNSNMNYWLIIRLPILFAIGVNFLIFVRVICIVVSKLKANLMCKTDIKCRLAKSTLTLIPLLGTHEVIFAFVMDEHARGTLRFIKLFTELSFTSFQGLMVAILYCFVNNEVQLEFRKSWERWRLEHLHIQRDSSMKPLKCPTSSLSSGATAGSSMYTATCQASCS
With B1 the “EC50 (cAMP reporter)” value was 4 pM.

The binders below were run against T3, glucagon receptor (UniProt P47871 26-477, limits assumed) (assay: cell-based or functional assay).
T3 sequence (P47871 26-477 limits assumed): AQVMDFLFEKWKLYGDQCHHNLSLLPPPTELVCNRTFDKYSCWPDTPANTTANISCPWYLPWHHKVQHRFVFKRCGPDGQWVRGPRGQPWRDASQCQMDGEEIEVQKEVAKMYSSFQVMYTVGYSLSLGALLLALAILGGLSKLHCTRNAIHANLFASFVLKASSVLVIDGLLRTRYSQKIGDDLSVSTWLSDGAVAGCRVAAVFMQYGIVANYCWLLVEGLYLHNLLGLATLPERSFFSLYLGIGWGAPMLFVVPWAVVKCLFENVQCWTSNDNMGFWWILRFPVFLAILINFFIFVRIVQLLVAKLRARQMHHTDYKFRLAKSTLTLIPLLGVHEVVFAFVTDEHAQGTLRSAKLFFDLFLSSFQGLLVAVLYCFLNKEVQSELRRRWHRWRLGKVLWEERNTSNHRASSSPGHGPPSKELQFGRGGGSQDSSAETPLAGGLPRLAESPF
In the case of B1, the “EC50 (cAMP reporter)” value is reported as over 500 pM.

Each binder was assayed against T1, GIP receptor (assay: cell-based or functional assay).
In the case of B1, the “EC50 (cAMP reporter)” value is reported as 13 pM.

Target: T2, GLP-1 receptor
Assay: cell-based or functional assay
Remark: another data set of the same source
For B2, the “EC50 (cAMP reporter)” value was 1 pM.
In the case of B3, the “EC50 (cAMP reporter)” value is reported as 2 pM.
With B4 the “EC50 (cAMP reporter)” value was 1 pM.
In the case of B5, the “EC50 (cAMP reporter)” value is reported as 2 pM.

Target: T3, glucagon receptor
Assay: cell-based or functional assay
Remark: another data set of the same source
With B2 the “EC50 (cAMP reporter)” value was 3 pM.
For B3, the “EC50 (cAMP reporter)” value was 5 pM.
B4 was tested, and the “EC50 (cAMP reporter)” value was 3 pM.
With B5 the “EC50 (cAMP reporter)” value was 5 pM.

Target: T1, GIP receptor
Assay: cell-based or functional assay
Remark: another data set of the same source
With B2 the “EC50 (cAMP reporter)” value was 7 pM.
With B3 the “EC50 (cAMP reporter)” value was 4 pM.
With B4 the “EC50 (cAMP reporter)” value was 69 pM.
For B5, the “EC50 (cAMP reporter)” value was 15 pM.

Target: T2, GLP-1 receptor
Assay: cell-based or functional assay
Remark: another data set of the same source
In the case of B6, the “EC50 (cAMP, nmole)” value is reported as 0.007 nmol.
With B7 the “EC50 (cAMP, nmole)” value was 0.003 nmol.
With B8 the “EC50 (cAMP, nmole)” value was 0.011 nmol.
With B9 the “EC50 (cAMP, nmole)” value was 0.007 nmol.

Target: T3, glucagon receptor
Assay: cell-based or functional assay
Remark: another data set of the same source
With B6 the “EC50 (cAMP, nmole)” value was 0.024 nmol.
With B7 the “EC50 (cAMP, nmole)” value was 0.008 nmol.
With B8 the “EC50 (cAMP, nmole)” value was 0.018 nmol.
In the case of B9, the “EC50 (cAMP, nmole)” value is reported as 0.011 nmol.

Target: T1, GIP receptor
Assay: cell-based or functional assay
Remark: another data set of the same source
For B6, the “EC50 (cAMP, nmole)” value was 0.015 nmol.
In the case of B7, the “EC50 (cAMP, nmole)” value is reported as 0.033 nmol.
In the case of B8, the “EC50 (cAMP, nmole)” value is reported as 0.024 nmol.
With B9 the “EC50 (cAMP, nmole)” value was 0.01 nmol.

Reference: patent US20120238493A1 (INDIANA UNIVERSITY RESEARCH AND TECHNOLOGY, published 2012)
